Assay results reported in publication PMC6519451.

Columns and labels:
[1] = target: reconstituted 26S proteasome (wild-type base, lid, Rpn10 and 20S core) (S. cerevisiae) (UniProt P33299)
[2] = target: 26S proteasome reconstituted with Cy3-labeled base (Rpt1-I191AzF-Cy3) (S. cerevisiae) (UniProt P33299); assay: FRET or BRET

Row | Substance | KM of multiple-turnover processing (Michaelis-Menten, anisotropy) [1] [µM] | kapp (1/τapp) of tail insertion, fast phase [2] [s⁻¹] | τapp of tail insertion, fast phase [2] [s]
1 | ubiquitinated titin-I27^V15P-43-K-11 (from UniProt P0CG63 1-76) | 2 |  | 
2 | ubiquitinated titin-I27^V15P-23-K-11, Cy5-labeled (from UniProt P0CG63 1-76) |  | 1.4 | 
3 | ubiquitinated titin-I27^V15P-23-K-25, Cy5-labeled (from UniProt P0CG63 1-76) |  |  | 1.73
4 | ubiquitinated titin-I27^V15P-23-K-35 modified with Cy5 on its unstructured tail (from UniProt P0CG63 1-76) |  | 0.62 | 1.61
5 | ubiquitinated titin-I27^V15P-23-K-25 (serine rich), Cy5-labeled (from UniProt P0CG63 1-76) |  |  | 7.15
